From the DeepSol protein solubility set

Experiment: soluble on expression in E. coli; label from the status in PepcDB or PDB records

Sequence: MGSDKIHHHHHHMPKLIIDADDFGLSKAINHGIIESYKTGITTSTLLMPNLETAEHAIALAKNHPDLFIGQHTNFLLGKPCANPAEIPSLVDENGEFHRSKYYRANPELKFQYEDVRTETIAQMERFKALTGHYPEHIDCHSIGDETVDQAFFDIAREFGIHTTLKYSGDKKWSDQEGYLPITKLLESGALPYTNGGVSVENFLNDDFGLLKLAPNEIAEMHFDVGFLDQFVLDNSSYTLMRCRELATICDVRVRDWLLENGFELITFGDLQR
- soluble on expression in E. coli: not soluble

Sequence: MGSDKIHHHHHHMIPIEIDSGSGFCFGVVNAIRHAEKQLEKSSDKLYCLGDIVHNTLEVERLGKKGLETIDYDAFSRLRGAKVLLRAHGEPPEIYRMAGENGVTIIDATCPVVLRLQNKIKSRYEATRSLGAQVVIYGKRGHAEVNGLVGQTEGTAIVIESEEELDKIDYTRPVILFSQTTKSLEGFGQIIDSISTRMQPGVTFEHHDTICRQVANRIPHIGAFATAHELVFFVAGEKSSNGKVLFGHCLAANPRSIFISSPEVIVPDMLVPLPASIGICGATSTPRWQMEEVASHIKALL
- soluble on expression in E. coli: not soluble

Sequence: MSRNVGVLGQMSEINDHLYLSGAGVLKPDKIKQRKINMIVNATTEEPSTYMQGVDTMKIRIEDHPYARLNEHFDVVADKIRNVKERGGKTLVHCMAGVSRSASLVMIYLVKHEHMTLRQAYHYVKAARPIIRPNVGFWKQMVDYEKRLRGTASVKMVQTPECDMPIPDVYADDIRRMQINREISRHSLPSAQSSASKQRAFSASTYRPSVSSASSLATSSLRRAYSPSSLPASSLALTTSYSLFSPAPTRKPRQSLFSMYSTSPRHNFFSAF
- soluble on expression in E. coli: not soluble

Sequence: MSLDSSMKISKVDNIGNHEDIEVNNAEIALSLASQMVGSGEEVVSMSIKYSKERVAFGKPIGSYQAIKHRVVNDAIDVELARSLILEAAENIKYAWIAKDLANKKIPKAILSGIQVHGGIGFTDDLDIHLHLRRALTLSKLYNSKVNISEFLQPIEGHHHHHH
- soluble on expression in E. coli: not soluble

Sequence: MSGAVPETPYHQRWLAFPDAVSSYRPLESRLAGTSRATADNRTPCTGRLGTPRVFLMATDDVSKAYSSPTFDAEALLGTVISAEDPDRVLIEPWATGVDGVILDVGSGTGRWTGHLASLGHQIEGLEPATRLVELARQTHPSVTFHHGTITDLSDSPKRWAGLLAWYSLIHMGPGELPDALVALRMAVEDGGGLLMSFFSGPSLEPMYHPVATAYRWPLPELAQALETAGFQVTSSHWDPRFPHAYLTAEASKQNLALEHHHHHH
- soluble on expression in E. coli: not soluble

Sequence: MNELVSAFHIERANGKVNGDVVAVEPAKTVNQDAADDEVEIKLNVDNYQMLRSDSQGSLNSHGRSNSRLGRLFRSKHEMKKRETRADENRGEIEIQIDFDDLVNQLKIALIRCRDLMTFDKKDQCNPYVSVKLVALDGNKEVFKKKTPTAKNTRHPHFDNHVEIDINPSDLLNHKVVINVKDDTNYGTFVAKPVLGCLEIRLDSLMNRQLSQRWIPLSVERK
- soluble on expression in E. coli: not soluble

Sequence: MNSDEVQLIKKTWEIPVATPTDSGAAILTQFFNRFPSNLEKFPFRDVPLEELSGNARFRAHAGRIIRVFDESIQVLGQDGDLEKLDEIWTKIAVSHIPRTVSKESYNQLKGVILDVLTAASSLDESQAATWAKLVDHVYGIIFKAIDDDGNAK
- soluble on expression in E. coli: soluble

Sequence: ALAKRIDAALILKDGRVVKGSNFENLRDSGDPVELGKFYSEIGIDELSFWDITASVEKRKTMLELVEKVAEQIDIPITVGGGIYDFETASELILRGADKVEINTAAVENPSLITQIAQTFGSQAVVVYIAAKRVDGEFMVFTYSGTKNTGILLRDWVVEVEKRGAGEIVLGSIDRLGTKSGYDTEMIRFVRPLTTLPIIAHRGAGKTEHFLEAFLAGADAAKADSVFHSREIDVRELKEYLKKHGVNVRLEGLGSLEHHHHHH
- soluble on expression in E. coli: soluble

Sequence: MGHHHHHHSHCDKCEGRGGKKGAVECCPNCRGTGMQIRIHQIGPGMVQQIQSVCMECQGHGERISPKDRCKSCNGR
- soluble on expression in E. coli: soluble

Sequence: MRGSHHHHHHTDPALRAPIIQSVERALQILDLFNEQATELKITDISKLMGLSKSTLHSLLKTLQLHGYIDQNPENGKYRLGMKLVERGHFVVGSIDIRQKAKGWLTELSRRTGQTTHLGILDGREGVYIEKIEGKLAAIAYSRIGRRLPVHATAIGKVLIAWLGEAELNALLEGYQYTTFTPATLASREALMSALAQTREQGYALDSEENEQGVRCVAVPVWNHESRVIAALSLSTLTSRVDDAELANFREQLQQAGLALSRALGYPAGLCGR
- soluble on expression in E. coli: soluble

Sequence: MGSDKIHHHHHHMMNTLAHPPGTDDATLSGMLSHFRLLEPVFDAMPDVVFFVKDAEARYALVNRTLASRCGFKEKTALLGRTAEDVFPRRFGRIYTAQDKAIINVGNQLIDQLELHLYPGRQPGWCLTCKQPLRNAAGKVVGLAGISRDLKADESSHPAYSRLATVVQSIQENYVQPLNLKQLAAMADMSVAQLERYFHKVFHLTPRQVLLKARLDAATALLVSHDKVTDVAALCGYTDHSAFTRQFKATVGVTPTEYRMLLHGTSRS
- soluble on expression in E. coli: not soluble

Sequence: GSHMSLDNKPIMRVASIDIGSYSVRLTIAQIKDGKLSIILERGRITSLGTKVKETGRLQEDRIEETIQVLKEYKKLIDEFKVERVKAVATEAIRRAKNAEEFLERVKREVGLVVEVITPEQEGRYAYLAVAYSLKPEGEVCVVDQGGGSTEYVFGKGYKVREVISLPIGIVNLTETFFKQDPPTEEEVKRFFEFLEKELSKVKKPVDTIVGLGGTITTLAALEYNVYPYDPQKVHGKVLTYGQIKKWFDTFKEIPSEERSKRFRQVEDRRAKVILAGIGIFLKTLEIFEKDCLIVSDWGLREGVLVSEVLKENHS
- soluble on expression in E. coli: soluble

Sequence: MGSDKIHHHHHHMDEALAHANGETPAVGDYMTRDVATVSADDTVSDVAARISESDHNGFPVTDGRHVEGFVSARDLLLADPDELLFKVMTEDLVVAHPEMDVTDAARVILRSGIQKLPVVDDAGNLVGIITNADVIRSQIERATPEKVGKLMRTLETIHGVSITEERRTVTISDVVPTQGKVYADELEGRRYELENGLAEPLVVIDNGSTGDDGSLLLADGHHRVMAAERAGVAEMDAYVIVLERAVDLGMARTARTEGLDSIADIDVVDYARHPLVETIERLQ
- soluble on expression in E. coli: not soluble

Sequence: MTMPDYDLIAILGPTASGKTPFAAALAAELNTEIISADSRQIYRGMDLGTGKDLEDYTINGRQIPYHLIDIADPGYKYNVFEYQRDFLTAYETIKQKGCLPVLCGGTGLYLESVLKGYRLIPVPENQELRVRLAEKSLEELTAILSSYKTLHNSTDVDTVKRAIRAIEIEEYYAKTPIEEREFPQLNSLIIGVDIDRELRREKITRRLKQRLDDGMVEEVRRLLAEGIQPDDLIYYGLEYKYLTLYAIGKMTYDEMFTGLETAIHQFAKRQMTWFRGMERRGFTIHWVDASLPMEEKINFVKQKLKEFLEHHHHHH
- soluble on expression in E. coli: not soluble

Sequence: MRDIVIIGHKAKTSGDFSLNDLPGSAGRMDILCRCVSSALFLSFGMRRDVNVHLLLLGEPDPGKIIRFEGLHLRYLNPDERSSGSLIQKALLKNAAGQDIRSTPGVWTRTGDLNSLLASFEGRTLLYLREDGKDFREIAREIQDPVFILGDHTGVTEEEEKQLLEAGAQVISVGPISLHSNHCITLIHNELDRAEAERGEIPGGNISRPED
- soluble on expression in E. coli: not soluble

Sequence: MADKKLDTQLVNAGRSKKYTLGAVNSVIQRASSLVFDSVEAKKHATRNRANGELFYGRRGTLTHFSLQQAMCELEGGAGCVLFPCGAAAVANSILAFIEQGDHVLMTNTAYEPSQDFCSKILSKLGVTTSWFDPLIGADIVKHLQPNTKIVFLESPGSITMEVHDVPAIVAAVRSVVPDAIIMIDNTWAAGVLFKALDFGIDVSIQAATKYLVGHSDAMIGTAVCNARCWEQLRENAYLMGQMVDADTAYITSRGLRTLGVRLRQHHESSLKVAEWLAEHPQVARVNHPALPGSKGHEFWKRDFTGSSGLFSFVLKKKLNNEELANYLDNFSLFSMAYSWGGYESLILANQPEHIAAIRPQGEIDFSGTLIRLHIGLEDVDDLIADLDAGFARIV
- soluble on expression in E. coli: soluble

Sequence: MQEVHKWHNDLTGKKLVENLKKNLFDAYYFEDGSEVSKYIMNYVGTGTKIGFGGSVTVQSLNIAEQAMEKGAVILDHNDASLTQEEKMDIMRQQLTSDIFISSTNAITASGELVNIDGVGNRVSAIVFGPKKVIIVVGLNKLCKDVETAFERIKMQAAPKNMKRLGFLNPCIKTGYCVNCDAETRACRIYSVIKRRPMLTDMTVLVVGKSLGFLEHHHHHH
- soluble on expression in E. coli: soluble

Sequence: GSHMGDKEKETLFKDYLNLIVVKMTEWIGNLEKAEFDVFLERSTPPHSDSDGLLFLDGTKTCFQMFTQQVEVAAGTNQAKILVGVVERFSDLLTKRQKNWISKISEEIKKQINYNHKYDIDPESITPEDECPGGLVEYLIAVSNDQMKAADYAVAISSKYGKLVSKVYEKQITNHLEGTLDGFAEVAQCSSLGLITLMFDDLRKPYQEIFSKTWYMGSQAQQIADTLDEYLLDIKPQMNSVLFVNFIDNVIGETIIKFLTALSFEHSFKNKNNKFLEAMKRDFEIFYQLFVKVLDGNESKDTLITQNFTVMEFFMDLSCEPIDSILDIWQKYLEVYWDSRIDLLVGILKCRKDVSSSERKKIVQQATEMLHEYRRNMEANGVDREPTLMRRFVLEFEKQ
- soluble on expression in E. coli: soluble

Sequence: MAHHHHHHMVSASPPQRDRGSPPTRPLSEPQDVDAPAAGTVQALRQAVEAQEACVRLLRARQAAREALLRHTRRLLTADDSIEWPGSVEQLVRQVEASLHKLQQAHSEAAAPAATTADNVAPTSAPSRSPRNAAGDADPSADPLARIFHSGVEAQLAAVAEPPHTLPASTLASRSSTAKRRKEAGESGLTNAVSTTSPPPGGPFPPRSAAMTALLARSASRQEAGHAAMLAALSALELSLMSNSGATEVGRDVHNAEPAWLRQVDSDSANDDDAAPEEQQQEKEGNRGDIASSDYSDDFECGSSTSSGADD
- soluble on expression in E. coli: not soluble

Sequence: SDLGAITKYSALHAKPNGLILQYGTAGFRTKAEHLDHVMFRMGLLAVLRSKQTKSTIGVMVTASHNPEEDNGVKLVDPLGEMLAPSWEEHATCLANAEEQDMQRVLIDISEKEAVNLQQDAFVVIGRDTRPSSEKLSQSVIDGVTVLGGQFHDYGLLTTPQLHYMVYCRNTGGRYGKATIEGYYQKLSKAFVELTKQASCSGDEYRSLKVDCANGIGALKLREMEHYFSQGLSVQLFNDGSKGKLNHLCGADFVKSHQKPPQGMEIKSNERCCSFDGDADRIVYYYHDADGHFHLIDGDKIATLISSFLKELLVEIGESLNIGVVQTAYANGSSTRYLEEVMKVPVYCTKTGVKHLHHKAQEFDIGVYFEANGHGTALFSTAVEMKIKQSAEQLEDKKRKAAKMLENIIDLFNQAAGDAISDMLVIEAILALKGLTVQQWDALYTDLPNRQLKVQVADRRVISTTNAERQAVTPPGLQEAINDLVKKYKLSRAFVRPSGTEDVVRVYAEADSQESADHLAHEVSLAVFQLAGGIGERPQPGF
- soluble on expression in E. coli: not soluble

Sequence: MGSDKIHHHHHHMVLKVFKDHFGRGYEVYEKSYREKDSLSFFLTKEEEGKILVVAGEKAPEGLSFFKKQRAEGVSFFFCERNHENLEVLRKYFPDLKPVRAGLRASFGTGDRLGITTPAHVRALKDSGLFPIFAQQSVRENERTGRTWRDVLDDATWGVFQEGYSEGFGADADHVKRPEDLVSAAREGFTMFTIDPSDHVRNLSKLTEKERNEKFEEILRKERIDRIYLGKKYSVLGEKIEFDEKNLRDAALVYYDAIAHVDMMYQILKDETPDFDFEVSVDETETPTSPLFHIFVVEELRRRGVEFTNLALRFIGEWEKGIDYKGDLAQFEREIKMHAEIARMFEGYKISLHSGSDKFSVYPAFASATGGLFHVKTAGTSYLEAVKVISMVNPELFREIYRCTLDHFEEDRKSYHISADLSKVPEVEKVKDEDLPGLFEDINVRQLIHVTYGSVLKDASLKERLFKTLEQNEELFYETVAKHIKRHVDLLEG
- soluble on expression in E. coli: not soluble

Sequence: MAHHHHHHMSAVLMAAVKVWTGNVRACLRVHHDTRTFCKAMKMRNLPVVLLDGVRFASLESVQHGKVRTRKDVVSGDLCVAIRKLNGVELMDDVQPRDPAIFLRDEKSKTFSAEEAREIYSIIVKSLSHILVVDSEVKTVECGIKRIMGNSTATEPETPKLTDLIRWLKSNMSTHDVLPIFSTQDRTVTFFVNQKIFRRIGHSDNGRRKK
- soluble on expression in E. coli: not soluble
